Patent US20060257938A1, “Method of screening for drugs that block ligand binding to a lipid binding protein” (priority 2005, published 2006)

What was measured:
Format in all cases: binding
[1] = Probe fluorescence ratio response to arachidonic acid relative to ADIFAB2; details: arachidonic acid; response relative to ADIFAB2
How it was run: (§1)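 Each fatty acid's response was expressed relative to ADIFAB2, the rI-FABP-L72A probe, as ΔR/ΔRreference. ΔR is the change in the background-corrected two-wavelength intensity ratio R=Fλ1/Fλ2 from its analyte-free baseline R0. Emission was read near about 420-480 nm for unbound and about 495-580 nm for FFA-bound probe.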

[2] = Probe fluorescence ratio response to linolenic acid relative to ADIFAB2; details: response relative to ADIFAB2
How it was run: as §1

[3] = Probe fluorescence ratio response to linoleic acid relative to ADIFAB2; details: response relative to ADIFAB2
How it was run: as §1

[4] = Probe fluorescence ratio response to oleic acid relative to ADIFAB2; details: response relative to ADIFAB2
How it was run: as §1

[5] = Probe fluorescence ratio response to palmitic acid relative to ADIFAB2; details: response relative to ADIFAB2
How it was run: as §1

| Molecule | DR/DR AA [1] | DR/DR LNA [2] | DR/DR LA [3] | DR/DR OA [4] | DR/DR PA [5] |
| --- | --- | --- | --- | --- | --- |
| 14L 72G 117I (protein, listed as Rattus norvegicus, PEPTIDE (1)...(131) wild-type rat intestinal fatty acid binding protein) AFDGTWKVDRNENLEKFMEKMGINVVKRKLGAHDNLKLTITQEGNKFTVKESSNFRNIDVVFELGVDFAYSGADGTELTGTWTMEGNKLVGKFKRVDNGKELIAVREISGNELIQTITYEGVEAKRIFKKE | 0.787 | 0.812 | 0.764 | 0.395 | 0.231 |
| 55I, 72A (protein, listed as Rattus norvegicus, PEPTIDE (1)...(131) wild-type rat intestinal fatty acid binding protein) AFDGTWKVDRNENYEKFMEKMGINVVKRKLGAHDNLKLTITQEGNKFTVKESSNIRNIDVVFELGVDFAYSAADGTELTGTWTMEGNKLVGKFKRVDNGKELIAVREISGNELIQTYTYEGVEAKRIFKKE | 1.079 | 0.885 | 0.834 | 0.901 | 0.774 |
| 78Y, 72A (protein, listed as Rattus norvegicus, PEPTIDE (1)...(131) wild-type rat intestinal fatty acid binding protein) AFDGTWKVDRNENYEKFMEKMGINVVKRKLGAHDNLKLTITQEGNKFTVKESSNFRNIDVVFELGVDFAYSAADGTEYTGTWTMEGNKLVGKFKRVDNGKELIAVREISGNELIQTYTYEGVEAKRIFKKE | 1.172 | 0.871 | 0.908 | 0.845 | 0.520 |
| 21I, 72A (protein, listed as Rattus norvegicus, PEPTIDE (1)...(131) wild-type rat intestinal fatty acid binding protein) AFDGTWKVDRNENYEKFMEKIGINVVKRKLGAHDNLKLTITQEGNKFTVKESSNFRNIDVVFELGVDFAYSAADGTELTGTWTMEGNKLVGKFKRVDNGKELIAVREISGNELIQTYTYEGVEAKRIFKKE | 0.531 | 0.412 | 0.365 | 0.310 | 0.162 |
| 21V, 72A (protein, listed as Rattus norvegicus, PEPTIDE (1)...(131) wild-type rat intestinal fatty acid binding protein) AFDGTWKVDRNENYEKFMEKVGINVVKRKLGAHDNLKLTITQEGNKFTVKESSNFRNIDVVFELGVDFAYSAADGTELTGTWTMEGNKLVGKFKRVDNGKELIAVREISGNELIQTYTYEGVEAKRIFKKE | 0.939 | 0.889 | 0.871 | 0.739 | 0.462 |
| 78I, 72A (protein, listed as Rattus norvegicus, PEPTIDE (1)...(131) wild-type rat intestinal fatty acid binding protein) AFDGTWKVDRNENYEKFMEKMGINVVKRKLGAHDNLKLTITQEGNKFTVKESSNFRNIDVVFELGVDFAYSAADGTEITGTWTMEGNKLVGKFKRVDNGKELIAVREISGNELIQTYTYEGVEAKRIFKKE | 1.138 | 0.958 | 0.874 | 0.923 | 0.748 |
| 115N, 72A (protein, listed as Rattus norvegicus, PEPTIDE (1)...(131) wild-type rat intestinal fatty acid binding protein) AFDGTWKVDRNENYEKFMEKMGINVVKRKLGAHDNLKLTITQEGNKFTVKESSNFRNIDVVFELGVDFAYSAADGTELTGTWTMEGNKLVGKFKRVDNGKELIAVREISGNELINTYTYEGVEAKRIFKKE | 0.918 | 0.726 | 0.777 | 0.711 | 0.558 |
| 82F, 72A (protein, listed as Rattus norvegicus, PEPTIDE (1)...(131) wild-type rat intestinal fatty acid binding protein) AFDGTWKVDRNENYEKFMEKMGINVVKRKLGAHDNLKLTITQEGNKFTVKESSNFRNIDVVFELGVDFAYSAADGTELTGTFTMEGNKLVGKFKRVDNGKELIAVREISGNELIQTYTYEGVEAKRIFKKE | 1.029 | 0.334 | 0.422 | 0.403 | 0.223 |
| 78V, 72A (protein, listed as Rattus norvegicus, PEPTIDE (1)...(131) wild-type rat intestinal fatty acid binding protein) AFDGTWKVDRNENYEKFMEKMGINVVKRKLGAHDNLKLTITQEGNKFTVKESSNFRNIDVVFELGVDFAYSAADGTEVTGTWTMEGNKLVGKFKRVDNGKELIAVREISGNELIQTYTYEGVEAKRIFKKE | 1.093 | 0.798 | 0.865 | 0.864 | 0.615 |
| 78A, 72A (protein, listed as Rattus norvegicus, PEPTIDE (1)...(131) wild-type rat intestinal fatty acid binding protein) AFDGTWKVDRNENYEKFMEKMGINVVKRKLGAHDNLKLTITQEGNKFTVKESSNFRNIDVVFELGVDFAYSAADGTEATGTWTMEGNKLVGKFKRVDNGKELIAVREISGNELIQTYTYEGVEAKRIFKKE | 0.433 | 0.429 | 0.372 | 0.350 | 0.190 |
| 11W, 72A (protein, listed as Rattus norvegicus, PEPTIDE (1)...(131) wild-type rat intestinal fatty acid binding protein) AFDGTWKVDRWENYEKFMEKMGINVVKRKLGAHDNLKLTITQEGNKFTVKESSNFRNIDVVFELGVDFAYSAADGTELTGTWTMEGNKLVGKFKRVDNGKELIAVREISGNELIQTYTYEGVEAKRIFKKE | 0.430 | 0.357 | 0.344 | 0.227 | 0.199 |
| 38I 72G (protein, listed as Rattus norvegicus, PEPTIDE (1)...(131) wild-type rat intestinal fatty acid binding protein) AFDGTWKVDRNENYEKFMEKMGINVVKRKLGAHDNLKITITQEGNKFTVKESSNFRNIDVVFELGVDFAYSGADGTELTGTWTMEGNKLVGKFKRVDNGKELIAVREISGNELIQTYTYEGVEAKRIFKKE | 0.964 | 0.701 | 0.772 | 0.861 | 0.419 |
| 104Y, 72A (protein, listed as Rattus norvegicus, PEPTIDE (1)...(131) wild-type rat intestinal fatty acid binding protein) AFDGTWKVDRNENYEKFMEKMGINVVKRKLGAHDNLKLTITQEGNKFTVKESSNFRNIDVVFELGVDFAYSAADGTELTGTWTMEGNKLVGKFKRVDNGKELIYVREISGNELIQTYTYEGVEAKRIFKKE | 0.364 | 0.278 | 0.265 | 0.236 | 0.140 |
| 49D, 72A (protein, listed as Rattus norvegicus, PEPTIDE (1)...(131) wild-type rat intestinal fatty acid binding protein) AFDGTWKVDRNENYEKFMEKMGINVVKRKLGAHDNLKLTITQEGNKFTDKESSNFRNIDVVFELGVDFAYSAADGTELTGTWTMEGNKLVGKFKRVDNGKELIAVREISGNELIQTYTYEGVEAKRIFKKE | 0.308 | 0.296 | 0.324 | 0.316 | 0.161 |
| 115H, 72A (protein, listed as Rattus norvegicus, PEPTIDE (1)...(131) wild-type rat intestinal fatty acid binding protein) AFDGTWKVDRNENYEKFMEKMGINVVKRKLGAHDNLKLTITQEGNKFTVKESSNFRNIDVVFELGVDFAYSAADGTELTGTWTMEGNKLVGKFKRVDNGKELIAVREISGNELIHTYTYEGVEAKRIFKKE | 0.891 | 0.697 | 0.741 | 0.675 | 0.514 |
| 106M, 72A (protein, listed as Rattus norvegicus, PEPTIDE (1)...(131) wild-type rat intestinal fatty acid binding protein) AFDGTWKVDRNENYEKFMEKMGINVVKRKLGAHDNLKLTITQEGNKFTVKESSNFRNIDVVFELGVDFAYSAADGTELTGTWTMEGNKLVGKFKRVDNGKELIAVMEISGNELIQTYTYEGVEAKRIFKKE | 0.554 | 0.490 | 0.485 | 0.510 | 0.183 |
| 11V, 72A (protein, listed as Rattus norvegicus, PEPTIDE (1)...(131) wild-type rat intestinal fatty acid binding protein) AFDGTWKVDRVENYEKFMEKMGINVVKRKLGAHDNLKLTITQEGNKFTVKESSNFRNIDVVFELGVDFAYSAADGTELTGTWTMEGNKLVGKFKRVDNGKELIAVREISGNELIQTYTYEGVEAKRIFKKE | 0.932 | 0.763 | 0.825 | 0.552 | 0.732 |
